In the assay the target is Tetrahymena Bld10/CEP135 (Tetrahymena thermophila (endogenous in strain SB715)). In words: cryo-EM structure; single-particle analysis of mechanically disrupted (splayed) centrioles isolated from Tetrahymena, 10 mM Hepes pH 7.5; proximal A-C linker (class 1) with adjacent microtubule triplet regions; focused maps 3.6 to 3.8 Å (B-C junction 3.8 and 4.0 Å, A-B junction 5.8 Å); proteins assigned by fitting AlphaFold2 models of MS-detected proteins (COLORES).

The substance “Tetrahymena Bld10/CEP135 (natural protein)” showed a stoichiometry N of 2.

The term stoichiometry N denotes the number of molecules, sites or subunits per partner or assembly.

The record behind these values is paper PMC12506977.
